Assays:
[1] = molecular target: T1, human PVR (SPR of the humanized variants, Example 5) (human, UniProt P15151 21-343); test: SPR
T1 sequence: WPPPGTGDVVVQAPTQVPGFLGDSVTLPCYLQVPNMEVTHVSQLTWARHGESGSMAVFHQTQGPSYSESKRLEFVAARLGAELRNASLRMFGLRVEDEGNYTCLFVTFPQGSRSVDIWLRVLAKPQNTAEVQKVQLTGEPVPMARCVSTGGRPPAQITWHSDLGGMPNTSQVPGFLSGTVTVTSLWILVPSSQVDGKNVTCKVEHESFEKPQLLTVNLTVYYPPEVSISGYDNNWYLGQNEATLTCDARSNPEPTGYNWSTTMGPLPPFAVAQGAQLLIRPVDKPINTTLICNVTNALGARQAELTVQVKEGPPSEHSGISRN

[2] = molecular target: human poliovirus receptor (PVR, CD155) expressed on cells (human) (UniProt P15151); test: flow cytometry, binding to PVR-expressing HEK 293 cells
[3] = molecular target: T1, human PVR (SPR of the humanized …); test: SPR; relative to N56E VH0/Vκ0
[4] = molecular target: human poliovirus receptor (PVR, CD155) expressed on cells (human) (UniProt P15151); test: flow cytometry, binding to PVR-expressing HEK 293 cells; relative to N56E VH0/Vκ0

B1: humanized 5B9 variant VH3/VK2 (antibody, V domains shown)
VH: QVQLVQSGAEVKKPGASVKVSCKATGYTFSNYWIEWIKQAPGQGLEWIGEIFPGSGRINFNEKFKGRVTFTADTSISTTYMELSRLRSDDTAVYYCARTKIYGNSFDYWGQGTLVTVSS
VL: DIQMTQSPSSLSASVGDRVTITCKASQDVGTAVVWYQQKPGKAPKLLIYWASSRHEGVPDRFSGSGSGTDFTLTISSLQPEDFADYFCQQYSRYPLTFGQGTKLEIK
Kd [1]: 4.32 nM | EC50 [2]: 0.52 nM | Relative KD [3]: 0.78 | Relative EC50 [4]: 0.66

B2: IgG4(S241P)_N56E_VH0/Vκ1 (antibody, V domains shown)
VH: QVQLQQSGAELMKPGASVKISCKATGYTFSNYWIEWIKQRPGHGLEWIGEIFPGSGRINFNEKFKGKATFTADTSSDTTYMQLSSLTSADSAVYYCARTKIYGNSFDYWGQGTTLTVSP
VL: DIMMTQSPSFLSASVGDRVTITCKASQDVGTAVVWYQQKPGKAPKLLIYWASSRHEGVPDRFTGSGSGTDFTLTISSLQSEDFADYFCQQYSRYPLTFGQGTKLEIK
notes: half-humanized control pairing; also called VH0/Vk1
Kd [1]: 4.03 nM | Relative KD [3]: 0.73

B3: humanized 5B9 variant VH1/VK1 (antibody, V domains shown)
VH: QVQLVQSGAELKKPGASVKISCKATGYTFSNYWIEWIKQAPGQGLEWIGEIFPGSGRINFNEKFKGRATFTADTSIDTTYMQLSSLTSDDSAVYYCARTKIYGNSFDYWGQGTTVTVSS
VL: DIMMTQSPSFLSASVGDRVTITCKASQDVGTAVVWYQQKPGKAPKLLIYWASSRHEGVPDRFTGSGSGTDFTLTISSLQSEDFADYFCQQYSRYPLTFGQGTKLEIK
Kd [1]: 4.17 nM | Relative KD [3]: 0.75

B4: IgG4(S241P)_N56E_VH1/Vκ4 (antibody, V domains shown)
VH: QVQLVQSGAELKKPGASVKISCKATGYTFSNYWIEWIKQAPGQGLEWIGEIFPGSGRINFNEKFKGRATFTADTSIDTTYMQLSSLTSDDSAVYYCARTKIYGNSFDYWGQGTTVTVSS
VL: DIQMTQSPSSLSASVGDRVTITCRASQDVGTAVAWYQQKPGKAPKSLIYWASSRHEGVPSRFSGSGSGTDFTLTISSLQPEDFATYFCQQYSRYPLTFGQGTKLEIK
notes: humanized 5B9 variant with Vk4; also called VH1/Vk4
Kd [1]: 69.3 nM | Relative KD [3]: 12.5

B5: humanized 5B9 variant VH2/VK1 (antibody, V domains shown)
VH: QVQLVQSGAEVKKPGASVKISCKATGYTFSNYWIEWIKQAPGQGLEWIGEIFPGSGRINFNEKFKGRATFTADTSIDTTYMELSRLRSDDTAVYYCARTKIYGNSFDYWGQGTLVTVSS
VL: DIMMTQSPSFLSASVGDRVTITCKASQDVGTAVVWYQQKPGKAPKLLIYWASSRHEGVPDRFTGSGSGTDFTLTISSLQSEDFADYFCQQYSRYPLTFGQGTKLEIK
Kd [1]: 3.96 nM | Relative KD [3]: 0.71

B6: humanized 5B9 variant VH2/VK2 (antibody, V domains shown)
VH: QVQLVQSGAEVKKPGASVKISCKATGYTFSNYWIEWIKQAPGQGLEWIGEIFPGSGRINFNEKFKGRATFTADTSIDTTYMELSRLRSDDTAVYYCARTKIYGNSFDYWGQGTLVTVSS
VL: DIQMTQSPSSLSASVGDRVTITCKASQDVGTAVVWYQQKPGKAPKLLIYWASSRHEGVPDRFSGSGSGTDFTLTISSLQPEDFADYFCQQYSRYPLTFGQGTKLEIK
Kd [1]: 4.67 nM | EC50 [2]: 0.64 nM | Relative KD [3]: 0.84 | Relative EC50 [4]: 0.81

B7: IgG4(S241P)_N56E_VH3/Vκ4 (antibody, V domains shown)
VH: QVQLVQSGAEVKKPGASVKVSCKATGYTFSNYWIEWIKQAPGQGLEWIGEIFPGSGRINFNEKFKGRVTFTADTSISTTYMELSRLRSDDTAVYYCARTKIYGNSFDYWGQGTLVTVSS
VL: DIQMTQSPSSLSASVGDRVTITCRASQDVGTAVAWYQQKPGKAPKSLIYWASSRHEGVPSRFSGSGSGTDFTLTISSLQPEDFATYFCQQYSRYPLTFGQGTKLEIK
notes: humanized 5B9 variant with Vk4, as IgG4; also called VH3/Vk4
Kd [1]: 75.2 nM | Relative KD [3]: 13.6

B8: humanized 5B9 variant VH5/VK1 (antibody, V domains shown)
VH: QVQLVQSGAEVKKPGASVKVSCKATGYTFSNYWIEWVRQAPGQGLEWMGEIFPGSGRINFNEKFKGRVTFTADTSISTAYMELSRLRSDDTAVYYCARTKIYGNSFDYWGQGTLVTVSS
VL: DIMMTQSPSFLSASVGDRVTITCKASQDVGTAVVWYQQKPGKAPKLLIYWASSRHEGVPDRFTGSGSGTDFTLTISSLQSEDFADYFCQQYSRYPLTFGQGTKLEIK
Kd [1]: 5.91 nM | Relative KD [3]: 1.07

B9: humanized 5B9 variant VH4/VK1 (antibody, V domains shown)
VH: QVQLVQSGAEVKKPGASVKVSCKATGYTFSNYWIEWVRQAPGQGLEWIGEIFPGSGRINFNEKFKGRVTFTADTSISTTYMELSRLRSDDTAVYYCARTKIYGNSFDYWGQGTLVTVSS
VL: DIMMTQSPSFLSASVGDRVTITCKASQDVGTAVVWYQQKPGKAPKLLIYWASSRHEGVPDRFTGSGSGTDFTLTISSLQSEDFADYFCQQYSRYPLTFGQGTKLEIK
Kd [1]: 4.62 nM | Relative KD [3]: 0.83

B10: IgG4(S241P)_N56E_VH1/Vκ0 (antibody, V domains shown)
VH: QVQLVQSGAELKKPGASVKISCKATGYTFSNYWIEWIKQAPGQGLEWIGEIFPGSGRINFNEKFKGRATFTADTSIDTTYMQLSSLTSDDSAVYYCARTKIYGNSFDYWGQGTTVTVSS
VL: DIMMTQSHKFMSTSVGDRVNITCKASQDVGTAVVWYQQKPGQSPKLLIYWASSRHEGVPDRFTGSGSGTDFTLTISNVQSEDLSDYFCQQYSRYPLTFGAGTKLELK
notes: half-humanized control pairing; also called VH1/Vk0
Kd [1]: 4.5 nM | Relative KD [3]: 0.81

B11: humanized 5B9 variant VH3/VK1 (antibody, V domains shown)
VH: QVQLVQSGAEVKKPGASVKVSCKATGYTFSNYWIEWIKQAPGQGLEWIGEIFPGSGRINFNEKFKGRVTFTADTSISTTYMELSRLRSDDTAVYYCARTKIYGNSFDYWGQGTLVTVSS
VL: DIMMTQSPSFLSASVGDRVTITCKASQDVGTAVVWYQQKPGKAPKLLIYWASSRHEGVPDRFTGSGSGTDFTLTISSLQSEDFADYFCQQYSRYPLTFGQGTKLEIK
Kd [1]: 4.56 nM | Relative KD [3]: 0.82

B12: humanized 5B9 variant VH1/VK2 (antibody, V domains shown)
VH: QVQLVQSGAELKKPGASVKISCKATGYTFSNYWIEWIKQAPGQGLEWIGEIFPGSGRINFNEKFKGRATFTADTSIDTTYMQLSSLTSDDSAVYYCARTKIYGNSFDYWGQGTTVTVSS
VL: DIQMTQSPSSLSASVGDRVTITCKASQDVGTAVVWYQQKPGKAPKLLIYWASSRHEGVPDRFSGSGSGTDFTLTISSLQPEDFADYFCQQYSRYPLTFGQGTKLEIK
Kd [1]: 4.01 nM | Relative KD [3]: 0.72

B13: IgG4(S241P)_N56E_VH5/Vκ4 (antibody, V domains shown)
VH: QVQLVQSGAEVKKPGASVKVSCKATGYTFSNYWIEWVRQAPGQGLEWMGEIFPGSGRINFNEKFKGRVTFTADTSISTAYMELSRLRSDDTAVYYCARTKIYGNSFDYWGQGTLVTVSS
VL: DIQMTQSPSSLSASVGDRVTITCRASQDVGTAVAWYQQKPGKAPKSLIYWASSRHEGVPSRFSGSGSGTDFTLTISSLQPEDFATYFCQQYSRYPLTFGQGTKLEIK
notes: humanized 5B9 variant with Vk4; also called VH5/Vk4
Kd [1]: 76.8 nM | Relative KD [3]: 13.9

B14: humanized 5B9 variant VH1/VK3 (antibody, V domains shown)
VH: QVQLVQSGAELKKPGASVKISCKATGYTFSNYWIEWIKQAPGQGLEWIGEIFPGSGRINFNEKFKGRATFTADTSIDTTYMQLSSLTSDDSAVYYCARTKIYGNSFDYWGQGTTVTVSS
VL: DIQMTQSPSSLSASVGDRVTITCRASQDVGTAVVWYQQKPGKAPKLLIYWASSRHEGVPSRFSGSGSGTDFTLTISSLQPEDFATYFCQQYSRYPLTFGQGTKLEIK
Kd [1]: 4.98 nM | Relative KD [3]: 0.9

B15: IgG4(S241P)_N56E_VH2/Vκ4 (antibody, V domains shown)
VH: QVQLVQSGAEVKKPGASVKISCKATGYTFSNYWIEWIKQAPGQGLEWIGEIFPGSGRINFNEKFKGRATFTADTSIDTTYMELSRLRSDDTAVYYCARTKIYGNSFDYWGQGTLVTVSS
VL: DIQMTQSPSSLSASVGDRVTITCRASQDVGTAVAWYQQKPGKAPKSLIYWASSRHEGVPSRFSGSGSGTDFTLTISSLQPEDFATYFCQQYSRYPLTFGQGTKLEIK
notes: humanized 5B9 variant with Vk4; also called VH2/Vk4
Kd [1]: 78.3 nM | Relative KD [3]: 14.1
